{
  "source": "patent US11932908B2",
  "about": "“Compositions and methods for diagnosis and treatment of epilepsy” (THE REGENTS OF THE UNIVERSITY OF CALIFORNIA, priority 2004, dated 2024)",
  "key": {"Bid": {"system": "Bid", "assay": "Co-expression with DsRed-Bid vector (marker for caspase activation)", "type": "cell-based", "settings": "fetal mouse primary hippocampal neuron", "excerpt": "Clarifying the exact stage or stages of apoptosis thru which myoclonin/EFHC1 acts and by what stage JME mutations reverse apoptosis is important for development of a curative treatment. Typically, apoptotic stimuli, through a Bcl-2 family mediated checkpoint, cause redistribution of cytochrome-c from mitochondria to cytosol. Cytosolic cytochrome-c binds to APAF-1 in the presence of dATP or ATP, result in recruitment and activation of caspase 9 and subsequent cleavage of caspase 3. Caspase 3 ultimately produces extensive DNA fragmentation. […] After establishing Bid activation, the next step is to establish that myoclonin acting through Bid, cause mitochondrial cytochrome C release and then caspase 3 activation. After establishing this step, studies will ask whether myoclonin also acts thru the AIF and a caspase 3 independent cell death mechanisms."}, "[1]": {"system": "mouse hippocampal primary culture neurons", "procedure": "Mouse hippocampal neurons primary culture. Hippocampal neurons were isolated from embryonic day 16 mice and plated at 1-2×10^5 cells per well in 24 well plate containing glass coverslips coated with poly-1-lysine and grown in serum-free NEUROBASAL™ media supplemented with B27, 0.5 mM L-glutamine (Invitrogen).\nTransfection and immunostaining of mouse hippocampal neurons. […] Cultures were fixed with 4% paraformaldehyde in PBS 16 and 48 hours after transfection, permeabilized with 0.3% Triton X-100, blocked in 3% normal goat serum in PBS, and treated with mouse monoclonal anti-MAP-2 antibody (1:500; Sigma) and Alexa fluor 594 goat anti-mouse IgG antibody (1:1000; Molecular Probes).\nTUNEL assay. […] Forty-eight hours after transfection, neuronal apoptosis was detected using DeadEndTM Fluorometric TUNEL System (Promega). Nuclei were visualized with Hoescht 33342 (Molecular Probes). These cells were also stained with anti-Myc antibody (1:200; Cell Signaling) and Alexa fluor 594 goat anti-rabbit IgG antibody (1:1000). All experiments were carried out in duplicate wells and at least repeated three times. Neuron cells were observed on a confocal microscope (OLYMPUS FLUOVIEW) following 48 hours post transfection.\nCell death analyses with EFHC1 mutants. […] Surviving cell numbers were scored by counting GFP fluorescent-positive cells that attached to dishes. At each counting, detached cells (dead cells) were carefully removed by changing culture medium. Morphologies of cells (cell shape, length and number of neurites, shrinkage, etc.) were not considered for the counting. Surviving cell numbers were scored at 24, 36, and 48 hours after transfection. Analyses were repeated twice by using two independently prepared expression construct DNAs. In total, neurons in seven wells of 24 well plates were counted for each transfection and time point. Experiments were performed in a blinded fashion."}, "C-terminus of Cav2.1": {"system": "C-terminus of Cav2.1", "assay": "Co-immunoprecipitation assay in HEK cells, Cav2.1 C-terminus", "type": "binding", "settings": "tagged proteins co-expressed in HEK cells", "experimental": "(§1) Immunoprecipitation. HEK cells co-transfected with expression constructs were collected 20 hrs post transfection. The cells were washed in PBS, scraped and homogenized in the lysis buffer (10 mM Tris pH 8.0, 150 mM NaCl, 5 mM EDTA) supplemented with protease inhibitors (Complete; Roche). Cellular debris was removed by centrifugation at 12,000×g for 10 min at 4° C. The supernatants were precleared with protein G-Sepharose (Amersham Pharmacia Biotech) for 2 h at 4° C. and then incubated with monoclonal anti-Flag M2-Agarose beads (Sigma) or anti-Myc antibody (Santa Cruz) for 12 hrs at 4° C. Protein G-Sepharose was used for precipitation with anti-Myc antibody. The beads were washed with lysis buffer five times and then eluted either with Flag peptide or SDS sample buffer for immunoblot analyses.\n(§2) Western blot analysis. Confluent HEK cells transiently transfected with expression constructs were placed on ice and washed twice with ice-cold PBS. Cells were scraped from the dishes and homogenized in a hypotonic buffer (0.25M sucrose, 10 mM Tris-HCl, 10 mM NaCl, 1 mM EDTA, pH7.5) supplemented with mixture of protease inhibitors (Complete; Roche). The lysate was centrifuged at 3,300 g for 5 min. to remove nuclei and the supernatant was used as total cytosolic protein. […]"}, "R-type VDCC (Cav2.3)": {"target": "T1, R-type VDCC (Cav2.3) (Oryctolagus cuniculus, UniProt Q02343)", "T1 construct": "expressed in transfected cells; host or cells: BHK (BII-104-2) cells", "T1 sequence (Q02343 whole entry)": "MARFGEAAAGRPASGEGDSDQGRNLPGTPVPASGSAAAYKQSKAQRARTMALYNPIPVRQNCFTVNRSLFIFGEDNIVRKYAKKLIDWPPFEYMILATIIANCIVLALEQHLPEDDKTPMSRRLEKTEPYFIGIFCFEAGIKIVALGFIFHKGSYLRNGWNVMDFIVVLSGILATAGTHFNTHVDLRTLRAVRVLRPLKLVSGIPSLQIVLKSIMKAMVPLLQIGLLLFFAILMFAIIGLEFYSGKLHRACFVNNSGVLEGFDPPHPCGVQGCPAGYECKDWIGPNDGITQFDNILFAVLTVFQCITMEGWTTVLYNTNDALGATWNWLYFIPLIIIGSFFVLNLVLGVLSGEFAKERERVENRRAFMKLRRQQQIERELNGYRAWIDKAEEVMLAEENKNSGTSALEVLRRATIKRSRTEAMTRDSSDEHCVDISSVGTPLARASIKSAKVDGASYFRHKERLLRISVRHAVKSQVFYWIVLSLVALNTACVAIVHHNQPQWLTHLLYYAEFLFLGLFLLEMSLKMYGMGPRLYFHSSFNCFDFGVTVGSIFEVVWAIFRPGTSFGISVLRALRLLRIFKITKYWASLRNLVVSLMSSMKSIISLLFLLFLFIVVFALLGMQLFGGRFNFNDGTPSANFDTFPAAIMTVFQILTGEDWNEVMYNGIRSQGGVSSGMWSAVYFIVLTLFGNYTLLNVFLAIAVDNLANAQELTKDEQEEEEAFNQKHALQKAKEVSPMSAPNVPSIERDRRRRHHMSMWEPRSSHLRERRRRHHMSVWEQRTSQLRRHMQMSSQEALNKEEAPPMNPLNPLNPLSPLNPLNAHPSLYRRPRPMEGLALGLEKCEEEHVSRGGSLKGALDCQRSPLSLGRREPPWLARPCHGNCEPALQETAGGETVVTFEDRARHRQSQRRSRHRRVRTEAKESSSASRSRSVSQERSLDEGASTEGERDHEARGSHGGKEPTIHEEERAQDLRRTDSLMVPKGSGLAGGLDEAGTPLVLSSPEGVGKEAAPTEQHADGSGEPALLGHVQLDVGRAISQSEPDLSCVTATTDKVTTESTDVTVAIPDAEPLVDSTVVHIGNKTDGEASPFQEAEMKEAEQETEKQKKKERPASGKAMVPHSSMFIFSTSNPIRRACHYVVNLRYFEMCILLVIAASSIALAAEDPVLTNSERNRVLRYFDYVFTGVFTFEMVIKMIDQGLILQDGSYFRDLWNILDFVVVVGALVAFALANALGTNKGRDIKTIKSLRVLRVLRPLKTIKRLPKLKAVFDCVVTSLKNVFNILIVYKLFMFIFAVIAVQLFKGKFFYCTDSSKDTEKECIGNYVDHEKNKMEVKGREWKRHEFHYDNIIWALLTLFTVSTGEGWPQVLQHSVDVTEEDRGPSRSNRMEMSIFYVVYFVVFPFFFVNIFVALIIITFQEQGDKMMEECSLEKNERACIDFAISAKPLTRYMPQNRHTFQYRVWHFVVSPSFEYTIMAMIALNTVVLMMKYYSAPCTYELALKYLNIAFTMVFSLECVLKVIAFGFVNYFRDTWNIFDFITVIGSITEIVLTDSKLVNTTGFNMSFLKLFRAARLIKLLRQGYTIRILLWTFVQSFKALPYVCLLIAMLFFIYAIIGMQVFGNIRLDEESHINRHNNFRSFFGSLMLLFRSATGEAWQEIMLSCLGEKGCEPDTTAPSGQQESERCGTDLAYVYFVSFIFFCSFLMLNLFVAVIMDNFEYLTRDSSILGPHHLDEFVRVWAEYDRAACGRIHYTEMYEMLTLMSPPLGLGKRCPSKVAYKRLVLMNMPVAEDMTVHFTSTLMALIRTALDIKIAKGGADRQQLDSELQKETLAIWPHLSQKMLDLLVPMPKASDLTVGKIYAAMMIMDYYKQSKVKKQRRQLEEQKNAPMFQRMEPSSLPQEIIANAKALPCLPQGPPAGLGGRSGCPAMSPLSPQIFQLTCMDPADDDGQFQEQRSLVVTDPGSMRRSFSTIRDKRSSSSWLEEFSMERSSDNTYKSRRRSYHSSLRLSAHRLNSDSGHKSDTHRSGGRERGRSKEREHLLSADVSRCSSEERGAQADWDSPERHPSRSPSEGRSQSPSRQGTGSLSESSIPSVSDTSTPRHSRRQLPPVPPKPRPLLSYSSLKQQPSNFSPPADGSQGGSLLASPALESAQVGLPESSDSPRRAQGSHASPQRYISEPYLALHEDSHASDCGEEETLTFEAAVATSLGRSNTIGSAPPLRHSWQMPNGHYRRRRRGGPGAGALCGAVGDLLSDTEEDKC", "T1 sequence (P13806 27-1106 partner)": "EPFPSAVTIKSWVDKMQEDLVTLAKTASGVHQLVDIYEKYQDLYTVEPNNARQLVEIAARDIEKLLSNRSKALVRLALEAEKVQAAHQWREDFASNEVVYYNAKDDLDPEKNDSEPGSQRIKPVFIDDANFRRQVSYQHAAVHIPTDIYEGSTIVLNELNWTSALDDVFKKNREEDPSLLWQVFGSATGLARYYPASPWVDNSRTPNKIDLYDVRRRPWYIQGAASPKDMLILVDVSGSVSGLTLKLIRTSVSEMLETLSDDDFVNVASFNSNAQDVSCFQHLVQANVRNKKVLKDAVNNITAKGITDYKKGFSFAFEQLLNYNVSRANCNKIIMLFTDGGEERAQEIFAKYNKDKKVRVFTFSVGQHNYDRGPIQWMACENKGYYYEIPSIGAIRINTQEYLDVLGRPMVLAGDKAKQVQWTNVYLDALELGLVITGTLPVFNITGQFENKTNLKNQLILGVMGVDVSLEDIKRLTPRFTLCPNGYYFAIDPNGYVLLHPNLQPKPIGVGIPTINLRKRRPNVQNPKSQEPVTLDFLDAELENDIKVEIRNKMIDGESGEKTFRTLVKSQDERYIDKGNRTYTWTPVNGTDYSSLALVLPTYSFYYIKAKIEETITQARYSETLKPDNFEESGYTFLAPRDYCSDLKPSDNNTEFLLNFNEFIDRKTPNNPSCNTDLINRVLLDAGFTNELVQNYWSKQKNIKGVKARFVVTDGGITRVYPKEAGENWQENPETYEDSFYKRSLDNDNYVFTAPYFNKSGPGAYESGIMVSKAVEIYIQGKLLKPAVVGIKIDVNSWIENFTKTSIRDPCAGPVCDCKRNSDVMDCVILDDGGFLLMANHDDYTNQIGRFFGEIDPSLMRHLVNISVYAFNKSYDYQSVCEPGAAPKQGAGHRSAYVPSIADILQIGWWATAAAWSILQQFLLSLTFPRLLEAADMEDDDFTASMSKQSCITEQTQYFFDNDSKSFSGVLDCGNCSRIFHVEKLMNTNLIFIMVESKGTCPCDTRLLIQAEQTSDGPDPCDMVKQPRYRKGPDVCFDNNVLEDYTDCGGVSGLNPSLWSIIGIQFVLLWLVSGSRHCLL", "T1 sequence (P19517 whole entry partner)": "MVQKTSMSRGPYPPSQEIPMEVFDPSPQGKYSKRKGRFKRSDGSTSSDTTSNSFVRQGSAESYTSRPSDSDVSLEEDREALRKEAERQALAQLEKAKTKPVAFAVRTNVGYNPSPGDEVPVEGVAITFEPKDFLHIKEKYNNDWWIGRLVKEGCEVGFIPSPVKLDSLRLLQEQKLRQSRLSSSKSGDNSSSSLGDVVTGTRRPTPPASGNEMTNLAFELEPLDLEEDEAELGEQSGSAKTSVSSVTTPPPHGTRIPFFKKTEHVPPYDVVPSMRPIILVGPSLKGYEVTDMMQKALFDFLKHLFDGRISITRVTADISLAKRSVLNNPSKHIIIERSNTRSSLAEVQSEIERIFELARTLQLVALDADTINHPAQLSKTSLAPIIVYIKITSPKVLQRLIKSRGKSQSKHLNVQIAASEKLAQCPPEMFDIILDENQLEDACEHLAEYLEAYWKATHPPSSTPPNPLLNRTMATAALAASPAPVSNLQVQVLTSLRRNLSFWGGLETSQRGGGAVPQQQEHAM", "assay": "Patch-clamp analyses of BHK cells stably expressing Cav2.3 transfected with EFHC1 constructs", "type": "cell-based", "settings": "whole cell patch-clamp, 24-48 hr after transfection", "experimental": "Electrophysiological analysis. A baby hamster kidney (BHK) cell line BHK (BII-104-2) stably transfected with the ociE (BII), α2/δ and β1a subunits, were cultured in DMEM medium containing 10% fetal bovine serum (FBS), 30 U/mL penicillin and 30 μg/mL streptomycin. To transiently express wild type or mutant EFHC1, BHK (BII-104-2) cells were transfected with the pEGFP-C2 plasmids (Clonetech) containing EGFP fused with cDNA for EFHC1 or its mutants using SuperFect Transfection Reagent (QIAGEN). For control experiments, EGFP was transiently expressed by transfecting BHK (BII-104-2) with the same amount of pEGFP without the EFHC1 inserts. Cells were trypsinized, diluted with the DMEM medium, and plated onto glass coverslips 18 hrs after transfection. Ca^2+ currents were recorded 24-48 hr after transfection from GFP-positive cells. Currents from BHK (BII-104-2) cells were recorded at room temperature (22-25° C.) using patch-clamp techniques of whole cell mode with an EPC-9 amplifier (HEKA, Germany). Patch pipettes were made from borosilicate glass capillaries (1.5 mm outer diameter and 0.87 mm inner diameter; Hilgenberg) by using a model P-97 Flaming-Brown micropipette puller (Sutter Instrument Co., CA). Pipette resistance ranged from 2 to 3 MΩ when filled with the pipette solutions described below. The series resistance was electronically compensated to >70% and both the leakage and the remaining capacitance were subtracted by −P/6 method. Currents were sampled at 100 kHz in activation kinetics, otherwise sampled at 50 kHz and filtered at 10 kHz. Calcium currents were recorded in an external solution that contained (in mM): 3 CaCl2, 148 tetraethylammonium chloride (TEA-C1), 10 glucose, and 10 HEPES, pH adjusted to 7.4 with Tris-OH. The pipette solution contained (in mM): 85 Cs-aspartate, 40 CsCl, 4 MgCl2, 5 EGTA, 2 ATP2Na, 5 HEPES, and 8 creatine-phosphate, pH adjusted to 7.4 with CsOH. To determine voltage-dependence of activation, amplitude of tail currents at −50 mV after 5 ms test pulse (−40 to 90 mV) was normalized to the maximal tail current amplitude. […]"}, "PQ type VDCC (Cav2.1)": {"target": "T2, PQ type VDCC (Cav2.1) (Oryctolagus cuniculus, UniProt P27884)", "T2 construct": "expressed in transfected cells; host or cells: HEK cell line", "assay": "Patch-clamp analyses of HEK cell line with P/Q type VDCCs and wild type EFHC1 or mutant constructs", "type": "cell-based"}, "C-terminus of Cav2.2": {"system": "C-terminus of Cav2.2", "assay": "Co-immunoprecipitation assay in HEK cells, Cav2.2 C-terminus", "type": "binding", "settings": "tagged proteins co-expressed in HEK cells", "experimental": "as §1, §2"}, "C-terminus of Cav2.3": {"system": "C-terminus of Cav2.3", "assay": "Co-immunoprecipitation assay in HEK cells, Cav2.3 C-terminus", "type": "binding", "settings": "tagged proteins co-expressed in HEK cells; listed as WT", "experimental": "as §1, §2"}},
  "note": "“Also recorded” adds a separate entry of the source. Like-named read-outs stand apart in the source and are kept apart here.",
  "data": [
    {"molecule": "EFHC1: myoclonin 1, a 640 amino acid protein with an EF-hand motif encoded by EFHC1 transcript A (SEQ ID NO: 4) (protein, listed as Homo sapiens) MVSNPVHGLPFLPGTSFKDSTKTAFHRSQTLSYRNGYAIVRRPTVGIGGDRLQFNQLSQAELDELASKAPVLTYGQPKQAPPADFIPAHVAFDKKVLKFDAYFQEDVPMSTEEQYRIRQVNIYYYLEDDSMSVIEPVVENSGILQGKLIKRQRLAKNDRGDHYHWKDLNRGINITIYGKTFRVVDCDQFTQVFLESQGIELNPPEKMALDPYTELRKQPLRKYVTPSDFDQLKQFLTFDKQVLRFYAIWDDTDSMYGECRTYIIHYYLMDDTVEIREVHERNDGRDPFPLLMNRQRVPKVLVENAKNFPQCVLEISDQEVLEWYTAKDFIVGKSLTILGRTFFIYDCDPFTRRYYKEKFGITDLPRIDVSKREPPPVKQELPPYNGFGLVEDSAQNCFTLIPKAPKKDVIKMLVNDNKVLRYLAVLESPIPEDKDRRFVFSYFLATDMISIFEPPVRNSGIIGGKYLGRTKVVKPYSTVDNPVYYGPSDFFIGAVIEVFGHRFIILDTDEYVLKYMESNAAQYSPEALASIQNHVRKREAPAPEAESKQTEKDPGVQELEALIDTIQKQLKDHSCKDNIREAFQIYDKEASGYVDRDMFFKICESLNVPVDDSLVKELIRMCSHGEGKINYYNFVRAFSN", "values": [
      {"measurement": "Bid activation", "setting": "Bid", "value": "activated Bid in a number of EFHC1-expressing neurons"},
      {"measurement": "neuronal morphology", "setting": "[1]; 16 hours post-transfection", "value": "shorter neurites and lesser branches; also recorded: shorter neurites and fewer branches"},
      {"measurement": "neuronal morphology", "setting": "[1]; 16 hours post-transfection, listed as GFP-EFHC1", "value": "shorter neurites and less branches"},
      {"measurement": "apoptosis (TUNEL) on EFHC1 overexpression", "setting": "[1]; 48 hours after transfection", "value": "induced apoptosis; also recorded: overlap with TUNEL positive cells"},
      {"measurement": "neuronal morphology", "setting": "[1]; 48 hours post-transfection", "value": "signs of neurodegeneration and cell death; also recorded: neurodegeneratve morphologies"},
      {"measurement": "neuronal morphology", "setting": "[1]; 48 hours post-transfection, listed as GFP-EFHC1", "value": "signs of neurodegeneration and cell death"},
      {"measurement": "co-immunoprecipitation with Cav2.1 C-terminus", "setting": "C-terminus of Cav2.1", "value": "did not"},
      {"measurement": "R-type Ca2+ current generated by Cav2.3", "setting": "R-type VDCC (Cav2.3)", "value": "specifically increased; also recorded: significantly increased"},
      {"measurement": "R-type Ca2+ current generated by Cav2.3", "setting": "R-type VDCC (Cav2.3); listed as WT EFHC1", "value": "significantly up-regulates"},
      {"measurement": "Ca2+ current density of P/Q-type VDCC (Cav2.1)", "setting": "PQ type VDCC (Cav2.1); cells co-transfected with P/Q-type VDCC and EFHC1 constructs", "value": "did not show such increase; also recorded: did not significantly affect"},
      {"measurement": "Activation V0.5 (mV)", "setting": "PQ type VDCC (Cav2.1); half-maximal voltage of activation, mean ± SEM", "value": "23.9 ± 1.0", "unit": "mV"},
      {"measurement": "Inactivation V0.5 (mV)", "setting": "PQ type VDCC (Cav2.1); half-maximal voltage of inactivation, mean ± SEM", "value": "−8.0 ± 0.8", "unit": "mV"},
      {"measurement": "inactivation speed of P/Q type VDCC (decelerating effect on calcium inactivation)", "setting": "PQ type VDCC (Cav2.1); patch-clamp", "value": "significantly decelerated"},
      {"measurement": "voltage dependence of activation", "setting": "PQ type VDCC (Cav2.1); patch-clamp", "value": "did not significantly affect"},
      {"measurement": "voltage dependence of inactivation", "setting": "PQ type VDCC (Cav2.1); patch-clamp", "value": "toward positive potentials"},
      {"measurement": "Activation k (mV)", "setting": "PQ type VDCC (Cav2.1); slope factor, mean ± SEM", "value": "8.63 ± 0.35", "unit": "mV"},
      {"measurement": "Inactivation K (mV)", "setting": "PQ type VDCC (Cav2.1); slope factor, mean ± SEM", "value": "6.73 ± 0.15", "unit": "mV"},
      {"measurement": "co-immunoprecipitation with Cav2.2 C-terminus", "setting": "C-terminus of Cav2.2", "value": "did not"},
      {"measurement": "co-immunoprecipitation with Cav2.3 C-terminus", "setting": "C-terminus of Cav2.3", "value": "co-immunoprecipitated"}
    ]}
  ]
}
